Laboratory results: PMC314469, “Protein Interaction Networks by Proteome Peptide Scanning” (PLoS Biology, 2004)

T1: Myo5 SH3 (MYO5_YEAST), Q04439
T1 chain: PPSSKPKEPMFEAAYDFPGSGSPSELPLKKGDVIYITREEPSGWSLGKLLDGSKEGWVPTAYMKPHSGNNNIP


Biological target: T1, Myo5 SH3 (MYO5_YEAST), Q04439
Test: SPOT array

| normalised SPOT signal, Boehringer light units (BLU); mean over the file's lines of this peptide | Binder |
| --- | --- |
| 198 | LLAEHNGPKLPHIP [YKR021W 416-429] |
| 339 | KELPFTGPSIPFEN [YPL216W 339-352] |
| 130 | KLALHQYPNFPSEG [YML022W 11-24] |
| 197 | KFTDMQVPKGPVSP [YOR264W 96-109] |
| 231 | KLPDLKLPPSPVPS [YML083C 113-126] |
| 254 | KPLNLSKPISPPPS [YJL157C 78-91] |
| 145 | LFKRLPVPAPPMDS [YNL238W 106-119] |
| 196 | KPKVLFHPHWPLYI [YJL105W 401-414] |
| 217 | KFFKHLYPAIPILD [YLR256W 487-500] |
| 159 | KPSGYYGPNSPLKL [YKL108W 199-212] |
| 429 | KWTIMPHPNRPNAA [YOL008W 138-151] |
| 6470 | LLLPLLLPPLPSVK [YKL147C 80-93] |
| 1220 | KFRQMFKPLAPNTR [YLR072W 165-178] |
| 432 | KFPLMDKPSIPTLR [YNR011C 604-617] |
| 103 | LEFSHYAPTAPHVQ [YLR069C 734-747] |
| 132 | KEVDLTRPSAPSEP [YLR181C 258-271] |
| 344 | LLAKLPLPRDPRVA [YPR183W 188-201] |
| 178 | LALLMTDPDAPSRT [YLR179C 73-86] |
| 1360 | KPKMLPIPSKPTLF [YPL243W 531-544] |
| 276 | KLDPLGEPFDPNKH [YOR232W 171-184] |
| 169 | LLKGYIPPYKPIVK [YMR104C 608-621] |
| 10500 | KASSMPAPPPPPPP [YLR337C 391-404] |
| 46.7 | KFVIHNEPIDPSDK [YMR246W 198-211] |
| 152 | KPSLWEAPQNPPYS [YML035C 587-600] |
| 212 | KLAPLNSPSLPTTN [YOL107W 236-249] |
| 71.1 | KLEDLNEPLSPWIS [YPL159C 152-165] |
| 258 | KLFVLLPPIDPKDG [YNL132W 563-576] |
| 227 | KLGRFTNPQQPRED [YPL075W 704-717] |

The remaining lines, values behind:

| Binder | normalised SPOT signal, Boehringer light units (BLU); mean over the file's lines of this peptide |
| --- | --- |
| KPMLHNVPHDPSLP [YDR231C 158-171] | 413 |
| KELNLTGPKVPEDI [YHR027C 344-357] | 102 |
| KELIYKQPSGPGLV [YER045C 32-45] | 79.3 |
| LASPFHDPILPRRT [YHL028W 522-535] | 288 |
| KWKSLFPPFFPSDI [YCL016C 283-296] | 242 |
| KPAVLHYPPIPASA [YAL031C 680-693] | 183 |
| KLVKFKLPFLPISD [YGR150C 548-561] | 974 |
| KPSVMKLPPSPKQP [YFR030W 871-884] | 380 |
| LEDALHVPTNPEIL [YDR416W 508-521] | 191 |
| KEQNWKHPLLPLLK [YDL202W 121-134] | 321 |
| LLISHLFPTNPEFS [YER155C 650-663] | 414 |
| KLPQLPPPPPPPPP [YIL159W 764-777] | 54100 |
| KPPSYPSPVQPPQS [YBL085W 399-412] | 16500 |
| KELLLIPPGFPTKN [YCL010C 181-194] | 123 |
| KPPSYPSPAQPPKS [YER114C 444-457] | 11900 |
| LAIRLSWPPAPVTL [YDL151C 103-116] | 155 |
| KPPVYRLPPLPRLK [YDL045W-A 4-17] | 2310 |
| KFTDMLDPEKPNVI [YBR033W 385-398] | 262 |
| KLNSLQIPHLPPSV [YHR105W 144-157] | 350 |
| KFLIHNEPIDPNDR [YIL009W 198-211] | 122 |
| KLKSLNLPQLPPPK [YDR266C 567-580] | 675 |
| LELLLSLPTGPESK [YBR172C 710-723] | 143 |
| LAKDLIVPRRPEWN [YGL099W 130-143] | 117000 |
| KLPKLNVPLNPKGK [YAR009C 933-946] | 305 |
| KAVHLYFPILPHSG [YCR034W 255-268] | 125 |
| KESKFGTPEKPLSD [YBL052C 444-457] | 250 |
| KPLKFLRPTYPDLS [YHR027C 87-100] | 149 |
| KEFRFIFPLQPLFI [YGL142C 392-405] | 750 |
| KLWDLSKPSKPLKE [YAR003W 97-110] | 233 |
| LLQSLRLPTTPTER [YCL040W 391-404] | 125 |
